Results reported in the MegaScale stability set (Tsuboyama et al. 2023).

B1: 2K2A (parent)
chain: ELREAFRLYDKEGNGYISTDVMREILAELDETLSSEDLDAMIDEIDADGSGTVDFEEFMGVMT

Variants of: B1
Test: folding stability dG (cDNA display proteolysis); higher = more stable
Details: PBS, room temperature

| Variant | folding stability dG |
| --- | --- |
| ELREAFRLYDKEGNGYISTDVMREILAELDETLSSEDLLAMIDEIDADGSGTVDFEEFMGVMT [D39L] | 1.3 kcal/mol |
| ELREAFRLYDKEGNGYISTDVMREILAELDETLSSEDLGAMIDEIDADGSGTVDFEEFMGVMT [D39G] | 0.971 kcal/mol |
| ELREAFRLYDKEGNGYISTDVMREILAELDETLSSEDLSAMIDEIDADGSGTVDFEEFMGVMT [D39S] | 1.39 kcal/mol |
| ELREAFRLYDKEGNGYISTDVMREILAELDETLSSEDLFAMIDEIDADGSGTVDFEEFMGVMT [D39F] | 1.15 kcal/mol |
| ELREAFRLYDKEGNGYISTDVMREILAELDETLSSEDLTAMIDEIDADGSGTVDFEEFMGVMT [D39T] | 1.3 kcal/mol |
| ELREAFRLYDKEGNGYISTDVMREILAELDETLSSEDLWAMIDEIDADGSGTVDFEEFMGVMT [D39W] | 1.22 kcal/mol |
| ELREAFRLYDKEGNGYISTDVMREILAELDETLSSEDLPAMIDEIDADGSGTVDFEEFMGVMT [D39P] | -0.067 kcal/mol |
| ELREAFRLYDKEGNGYISTDVMREILAELDETLSSEDLHAMIDEIDADGSGTVDFEEFMGVMT [D39H] | 1.13 kcal/mol |
| ELREAFRLYDKEGNGYISTDVMREILAELDETLSSEDLCAMIDEIDADGSGTVDFEEFMGVMT [D39C] | 1.16 kcal/mol |
| ELREAFRLYDKEGNGYISTDVMREILAELDETLSSEDLYAMIDEIDADGSGTVDFEEFMGVMT [D39Y] | 1.06 kcal/mol |
| ELREAFRLYDKEGNGYISTDVMREILAELDETLSSEDLAAMIDEIDADGSGTVDFEEFMGVMT [D39A] | 1.48 kcal/mol |
| ELREAFRLYDKEGNGYISTDVMREILAELDETLSSEDLNAMIDEIDADGSGTVDFEEFMGVMT [D39N] | 1.58 kcal/mol |
| ELREAFRLYDKEGNGYISTDVMREILAELDETLSSEDLRAMIDEIDADGSGTVDFEEFMGVMT [D39R] | 1.41 kcal/mol |
| ELREAFRLYDKEGNGYISTDVMREILAELDETLSSEDLIAMIDEIDADGSGTVDFEEFMGVMT [D39I] | 1.33 kcal/mol |
| ELREAFRLYDKEGNGYISTDVMREILAELDETLSSEDLKAMIDEIDADGSGTVDFEEFMGVMT [D39K] | 1.48 kcal/mol |
| ELREAFRLYDKEGNGYISTDVMREILAELDETLSSEDLQAMIDEIDADGSGTVDFEEFMGVMT [D39Q] | 1.57 kcal/mol |
| ELREAFRLYDKEGNGYISTDVMREILAELDETLSSEDLMAMIDEIDADGSGTVDFEEFMGVMT [D39M] | 1.32 kcal/mol |
| ELREAFRLYDKEGNGYISTDVMREILAELDETLSSEDLVAMIDEIDADGSGTVDFEEFMGVMT [D39V] | 0.996 kcal/mol |
| ELREAFRLYDKEGNGYISTDVMREILAELDETLSSEDLEAMIDEIDADGSGTVDFEEFMGVMT [D39E] | 1.4 kcal/mol |
| ELREAFRLYDKEGNGYISTDVMREILAELDETLSSEDLDVMIDEIDADGSGTVDFEEFMGVMT [A40V] | 1.69 kcal/mol |
| ELREAFRLYDKEGNGYISTDVMREILAELDETLSSEDLDFMIDEIDADGSGTVDFEEFMGVMT [A40F] | 1.77 kcal/mol |
| ELREAFRLYDKEGNGYISTDVMREILAELDETLSSEDLDLMIDEIDADGSGTVDFEEFMGVMT [A40L] | 1.85 kcal/mol |

| Variant | folding stability dG |
| --- | --- |
| ELREAFRLYDKEGNGYISTDVMREILAELDETLSSEDLDHMIDEIDADGSGTVDFEEFMGVMT [A40H] | 2.19 kcal/mol |
| ELREAFRLYDKEGNGYISTDVMREILAELDETLSSEDLDSMIDEIDADGSGTVDFEEFMGVMT [A40S] | 1.73 kcal/mol |
| ELREAFRLYDKEGNGYISTDVMREILAELDETLSSEDLDPMIDEIDADGSGTVDFEEFMGVMT [A40P] | -0.715 kcal/mol |
| ELREAFRLYDKEGNGYISTDVMREILAELDETLSSEDLDYMIDEIDADGSGTVDFEEFMGVMT [A40Y] | 1.71 kcal/mol |
| ELREAFRLYDKEGNGYISTDVMREILAELDETLSSEDLDRMIDEIDADGSGTVDFEEFMGVMT [A40R] | 2.31 kcal/mol |
| ELREAFRLYDKEGNGYISTDVMREILAELDETLSSEDLDWMIDEIDADGSGTVDFEEFMGVMT [A40W] | 1.6 kcal/mol |
| ELREAFRLYDKEGNGYISTDVMREILAELDETLSSEDLDCMIDEIDADGSGTVDFEEFMGVMT [A40C] | 1.93 kcal/mol |
| ELREAFRLYDKEGNGYISTDVMREILAELDETLSSEDLDGMIDEIDADGSGTVDFEEFMGVMT [A40G] | 1.34 kcal/mol |
| ELREAFRLYDKEGNGYISTDVMREILAELDETLSSEDLDEMIDEIDADGSGTVDFEEFMGVMT [A40E] | 1.51 kcal/mol |
| ELREAFRLYDKEGNGYISTDVMREILAELDETLSSEDLDQMIDEIDADGSGTVDFEEFMGVMT [A40Q] | 1.8 kcal/mol |
| ELREAFRLYDKEGNGYISTDVMREILAELDETLSSEDLDIMIDEIDADGSGTVDFEEFMGVMT [A40I] | 1.77 kcal/mol |
| ELREAFRLYDKEGNGYISTDVMREILAELDETLSSEDLDNMIDEIDADGSGTVDFEEFMGVMT [A40N] | 1.73 kcal/mol |
| ELREAFRLYDKEGNGYISTDVMREILAELDETLSSEDLDKMIDEIDADGSGTVDFEEFMGVMT [A40K] | 2.11 kcal/mol |
| ELREAFRLYDKEGNGYISTDVMREILAELDETLSSEDLDMMIDEIDADGSGTVDFEEFMGVMT [A40M] | 1.76 kcal/mol |
| ELREAFRLYDKEGNGYISTDVMREILAELDETLSSEDLDDMIDEIDADGSGTVDFEEFMGVMT [A40D] | 1.4 kcal/mol |
| ELREAFRLYDKEGNGYISTDVMREILAELDETLSSEDLDTMIDEIDADGSGTVDFEEFMGVMT [A40T] | 1.57 kcal/mol |
| ELREAFRLYDKEGNGYISTDVMREILAELDETLSSEDLDAAIDEIDADGSGTVDFEEFMGVMT [M41A] | 1.27 kcal/mol |
| ELREAFRLYDKEGNGYISTDVMREILAELDETLSSEDLDACIDEIDADGSGTVDFEEFMGVMT [M41C] | 1.37 kcal/mol |
| ELREAFRLYDKEGNGYISTDVMREILAELDETLSSEDVDAMIDEIDADGSGTVDFEEFMGVMT [L38V] | 1.52 kcal/mol |
| ELREAFRLYDKEGNGYISTDVMREILAELDETLSSEDWDAMIDEIDADGSGTVDFEEFMGVMT [L38W] | 0.599 kcal/mol |
| ELREAFRLYDKEGNGYISTDVMREILAELDETLSSEDYDAMIDEIDADGSGTVDFEEFMGVMT [L38Y] | 0.134 kcal/mol |
